Results from PMC9379584 (iScience, 2022).
Values joined by “and” are separate entries in the source; they are usually repeats but may differ in a detail not shown here. Identical values can stand only once. Like-named read-outs stand apart in the source and are kept apart here. Blank lines part the entries; values can stand above or below the molecule they belong to.

What was measured:
mouse pancreatic islets [1] = experiment: Glucose-stimulated insulin secretion; type: cell-based; conditions: read-out: IC50, inhibition of GSIS; wildtype mouse islets, 20 mM glucose, 90 min
INS-1E cells [2] = experiment: Glucose-stimulated insulin secretion; type: cell-based, rat; conditions: read-out: IC50, inhibition of GSIS; INS-1E, 20 mM glucose, 90 min
INS-1E cells [3] = experiment: HTRF cAMP assay in INS-1E cells; type: cell-based, rat; conditions: normalized to DA's efficacy in parental INS-1E
[4] = test system: α2A-AR KO INS-1E-derived cell line; experiment: HTRF cAMP assay in α2A-AR KO INS-1E-derived cells; type: cell-based, rat
α2A-AR [5] = target: T1, α2A-AR (Rattus norvegicus, UniProt P22909); experiment: cell-based; conditions: nanoBRET
T1 sequence (P22909 1-465): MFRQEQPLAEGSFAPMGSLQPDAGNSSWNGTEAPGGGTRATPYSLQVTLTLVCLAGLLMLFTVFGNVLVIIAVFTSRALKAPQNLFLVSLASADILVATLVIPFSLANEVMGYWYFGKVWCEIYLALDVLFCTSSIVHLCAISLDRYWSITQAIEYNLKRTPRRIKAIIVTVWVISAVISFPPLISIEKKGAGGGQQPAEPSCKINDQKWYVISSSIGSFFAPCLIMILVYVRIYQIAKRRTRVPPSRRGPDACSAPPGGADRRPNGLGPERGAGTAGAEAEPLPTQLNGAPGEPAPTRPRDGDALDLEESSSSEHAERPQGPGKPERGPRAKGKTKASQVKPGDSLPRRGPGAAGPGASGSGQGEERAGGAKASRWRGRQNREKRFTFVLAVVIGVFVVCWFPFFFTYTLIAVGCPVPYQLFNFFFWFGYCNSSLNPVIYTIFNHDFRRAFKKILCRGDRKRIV

α2A-AR [6] = target: T1, α2A-AR; type: cell-based; conditions: nanoBRET
mouse pancreatic islets [7] = conditions: cited from earlier work
INS-1E cells [8] = conditions: cited from earlier work
[9] = target: IL6-HiBiT-α2A-AR-HaloTag (rat α2A-adrenergic receptor) (rat) (UniProt P22909); experiment: FRET or BRET
[10] = target: IL6-HiBiT-D2R-HaloTag (human dopamine D2 receptor) (human) (UniProt P14416); experiment: FRET or BRET
[11] = target: IL6-HiBiT-D2R-HaloTag (human dopamine D2 receptor) (human, UniProt P14416 1-443, HaloTag NanoBRET 618 ligand bound to the HaloTag); experiment: FRET or BRET
[12] = α2A-AR KO versus parental INS-1E
[13] = read-out: IC50, inhibition of GSIS, ref Aslanoglou et al. (2021)
[14] = read-out: IC50, inhibition of GSIS, ref Aslanoglou et al., 2021

Chain of IL6-HiBiT-D2R-HaloTag (human dopamine D2 receptor) (P14416 whole entry): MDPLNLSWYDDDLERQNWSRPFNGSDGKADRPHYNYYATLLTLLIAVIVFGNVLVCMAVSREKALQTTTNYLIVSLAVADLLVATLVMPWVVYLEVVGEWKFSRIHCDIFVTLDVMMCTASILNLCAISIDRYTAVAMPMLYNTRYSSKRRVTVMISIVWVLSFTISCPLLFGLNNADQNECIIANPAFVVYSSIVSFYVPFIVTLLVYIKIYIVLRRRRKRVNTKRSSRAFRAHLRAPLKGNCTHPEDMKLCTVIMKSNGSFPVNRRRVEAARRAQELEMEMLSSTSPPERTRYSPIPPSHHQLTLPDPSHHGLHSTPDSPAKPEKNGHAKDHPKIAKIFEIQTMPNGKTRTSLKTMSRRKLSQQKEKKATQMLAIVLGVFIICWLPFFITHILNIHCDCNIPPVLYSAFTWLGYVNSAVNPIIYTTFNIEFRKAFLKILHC
Chain of IL6-HiBiT-D2R-HaloTag (human dopamine D2 receptor) (human) (P14416 whole entry): as above

IC50 ([4]; read-out: IC50, inhibition of cAMP production, α2A-AR KO): 1500 nM
EC50 (α2A-AR [5]; EC50, Gαi2 recruitment to α2A-AR, Gαi2): 1040 nM
EC50 (α2A-AR [5]; EC50, Gαi3 recruitment to α2A-AR, Gαi3): 1030 nM
EC50 (α2A-AR [5]; EC50, GαoA recruitment to α2A-AR, GαoA): 836 nM
EC50 (α2A-AR [5]; EC50, GαoB recruitment to α2A-AR, GαoB): 945 nM
EC50 (α2A-AR [5]; EC50, Gαz recruitment to α2A-AR, Gαz): 666 nM
EC50 (α2A-AR [5]; pEC50, GαoB recruitment to α2A-AR, GαoB): 933 nM
β-arrestin1 recruitment to α2A-AR (α2A-AR [6]): negligible recruitment
Molecule: NCCc1ccc(O)c(O)c1 [DA, dopamine]
Emax, inhibition of cAMP production (INS-1E cells [3]): 100.00 % DA
increase of potency in diminishing cAMP by α2A-AR KO [4, 12]: 1.7 fold
reduction of efficacy in lowering cAMP by α2A-AR KO [4, 12]: 57% and 57.2%
Emax, inhibition of cAMP production ([4]; α2A-AR KO, normalized to DA's efficacy in parental INS-1E): 57.15 [46.22–88.79] % DA
IC50 (mouse pancreatic islets [7]; [13]): 1300 nM
IC50 (mouse pancreatic islets [7]; [14]): 1300 nM
pIC50, inhibition of GSIS (mouse pancreatic islets [7]; ref Aslanoglou et al. (2021)): 5.89
IC50 (INS-1E cells [8]; [13]): 1490 nM
IC50 (INS-1E cells [8]; [14]): 1500 nM
pIC50, inhibition of GSIS (INS-1E cells [8]; ref Aslanoglou et al. (2021)): 5.83

EC50 of the agonist NE for recruitment [10]: 4900 nM
EC50 of the agonist bromocriptine for recruitment [10]: 104 nM
Emax of recruitment with bromocriptine (% of the DA response) (% of DA response) [10]: 60
Molecule: NanoLuc-Gαi1(91) (from UniProt P63096 1-354) (natural protein; other documents disagree on this pair)

Emax of recruitment with bromocriptine (% of the NE response) (% of NE response) [9]: 12.7
Molecule: NanoLuc-Gαi3(91) (from UniProt P08754 1-354) (natural protein)

EC50 of the agonist NE for recruitment [10]: 32600 nM
EC50 of the agonist bromocriptine for recruitment [10]: 84.3 nM
Emax of recruitment with bromocriptine (% of the DA response) (% of DA response) [10]: 64.2
Molecule: NanoLuc-Gαi3(91) (from UniProt P08754 1-354) (natural protein; other documents disagree on this pair)

Emax of recruitment with bromocriptine (% of the NE response) (% of NE response) [9]: 43
Molecule: NanoLuc-GαoA(91) (from UniProt P09471 1-354) (natural protein)

Emax of recruitment with bromocriptine (% of the DA response) (% of DA response) [10]: 109
Molecule: NanoLuc-GαoA(91) (from UniProt P09471 1-354) (natural protein; other documents disagree on this pair)

EC50 of the agonist DA for recruitment [11]: 22.4 nM
EC50 of the agonist NE for recruitment [11]: 139 nM
EC50 of the agonist bromocriptine for recruitment [11]: 0.27 nM
B1: NanoLuc-GαoB(91) (natural protein)
chain: MGCTLSAEERAALERSKAIEKNLKEDGISAAKDVKLLLLGAGESGKSTIVKQMKIIHEDGFSGEDVKQYKPVVYSNTIQSLAAIVRAMDTLGIEYGDKERKADAKMVCDVVSRMEDTEPFSAELLSAMMRLWGDSGIQECFNRSREYQLNDSAKYYLDSLDRIGAADYQPTEQDILRTRVKTTGIVETHFTFKNLHFRLFDVGGQRSERKKWIHCFEDVTAIIFCVALSGYDQVLHEDETTNRMHESLKLFDSICNNKWFTDTSIILFLNKKDIFEEKIKKSPLTICFPEYTGPSAFTEAVAYIQAQYESKNKSAHKEIYTHVTCATDTNNIQFVFDAVTDVIIAKNLRGCGLY

Continued, molecule first:

Molecule: Clc1cccc(Cl)c1N=C1NCCN1 [Clonidine, clonidine]
IC50 (mouse pancreatic islets [1]): 7.36 nM
IC50 (INS-1E cells [2]): 9.06 nM

Molecule: NanoLuc-Gαi1(91) (from UniProt P63096 1-354) (natural protein)
Emax of recruitment with bromocriptine (% of the NE response) (% of NE response) [9]: 15.4

Molecule: NanoLuc-Gαi2(91) (from UniProt P04899 1-355) (natural protein)
Emax of recruitment with bromocriptine (% of the NE response) (% of NE response) [9]: 43.8

Molecule: NanoLuc-Gαi2(91) (from UniProt P04899 1-355) (natural protein; other documents disagree on this pair)
EC50 of the agonist DA for recruitment [10]: 2.88 nM
EC50 of the agonist NE for recruitment [10]: 25.3 nM
EC50 of the agonist bromocriptine for recruitment [10]: 21.6 nM
Emax of recruitment with bromocriptine (% of the DA response) (% of DA response) [10]: 89.3

Molecule: NanoLuc-Gαz(91) (from UniProt P19086 1-355) (natural protein)
Emax of recruitment with bromocriptine (% of the NE response) (% of NE response) [9]: 21.2

Molecule: NanoLuc-Gαz(91) (from UniProt P19086 1-355) (natural protein; other documents disagree on this pair)
EC50 of the agonist NE for recruitment [10]: 0.07 nM
EC50 of the agonist bromocriptine for recruitment [10]: 4.3 nM
Emax of recruitment with bromocriptine (% of the DA response) (% of DA response) [10]: 66.5
